From US20250152742A1, “COMPOSITIONS AND METHODS FOR NEUROLOGICAL DISEASES” (Trames Bio, Inc., priority 2022, published 2025)

System: engineered chimeric receptor SEQ ID NO: 33 and its mutants (human α7-nAChR ligand binding domain / human GlyRα1 ion pore domain) in Lenti-X 293T cells
Assay: YFP fluorescence quenching anion reporter plate reader assay (percent quench, EC50)
Assay type: cell-based
Details: for YFP fluorescence quenching using CNL001 (percent quench): receptor named in row; for YFP fluorescence quenching using Facinicline, 30 nM fac: ligand Facinicline 30 nM; for YFP fluorescence quenching using Facinicline, 300 nM fac: ligand Facinicline 300 nM; for YFP fluorescence quenching using Facinicline, 30 uM fac: ligand Facinicline 30 uM; for YFP fluorescence quenching using TC-6987, 1 uM tc6987: ligand TC-6987 1 uM; for YFP fluorescence quenching using TC-6987, 10 uM tc6987: ligand TC-6987 10 uM; for YFP fluorescence quenching using TC-6987, 500 uM tc6987: ligand TC-6987 500 uM; for YFP fluorescence quenching using Varenicline, 3 nM var: ligand Varenicline 3 nM; for YFP fluorescence quenching using Varenicline, 30 nM var: ligand Varenicline 30 nM; for YFP fluorescence quenching using Varenicline, 300 nM var: ligand Varenicline 300 nM; for YFP fluorescence quenching using Varenicline, 500 nM var: ligand Varenicline 500 nM; for YFP fluorescence quenching using Varenicline, 1 uM var: ligand Varenicline 1 uM
Text: To screen these mutant LGICs for those having novel response profiles to ligands, an anion reporter assay was developed to assess the function of the LGICs in a high throughput format. In this assay, cells expressing a YFP reporter whose fluorescence is quenched in the presence of anion are transfected with DNA encoding the channel of interest. Upon exposure to ligand, channels that are activated will flux anion, resulting in a dose-dependent quench of the YFP that can be detected on a plate reader. The greater the quench signal (i.e., the more positive the value), the higher the ligand activity on the receptor is.
Lenti-X 293T cells (LX293T, Clontech) were maintained in DMEM containing 10% FBS and 1% penicillin/streptomycin (Invitrogen). […] Two days before assay, cells were split at a density of 20,000 cells/well in a 96-well tissue culture plate coated with poly-d lysine (Thermo Scientific). The next day, the cells were transiently transfected with 0.1 μg of DNA per well using standard Fugene protocol (Promega). On the day of assay, cells were washed 2 times in 1X extracellular solution (1X ECS: 140 mM NaCl, 5 mM KCl, 1 mM MgCl2, 2 mM CaCl2, 10 mM HEPES, 10 mM glucose, pH 7.2, mOsms 300). After the last wash, 100 μL of 1X ECS was added to the wells and the plate was incubated at 37° C. for 30 min. While incubating the plate, the drugs were diluted to a 2X concentration in 1X ECS-Nal (same components as 1X ECS except the 140 mM NaCl was replaced by 140 mM Nal). The plates were then read on a Flexstation3 (Molecular Devices). Each well, 8 wells at a time, of the plate is read for 2 min using a Flexstation3 (Molecular Devices) as follows: 1) a baseline YFP fluorescence is read for 17 sec, 2) 100 μL of ligand is added, and 3) the changes in YFP fluorescence are then measured every 1.3 sec for 1 minute and 43 seconds. The percent quench is calculated from the average fluorescence of the last 10 seconds of the read divided by the baseline average of the first 15 seconds prior to the ligand addition.
FIGS. 1A-1J provide heat maps of the percent quench of YFP fluorescence following stimulation by various doses of either acetylcholine or the non-native ligand as indicated in the Figures. CODA71 (SEQ ID NO: 33) was used as a control, and CODA75 (SEQ ID NO: 29, a non-responding chimeric engineered receptor) was used as the negative control. Quenching of the fluorescence signal, as indicated by blue shaded cells, indicate the level of engineered receptor activation by the non-native ligand at that concentration.

[1] = 1 nM CNL001, first column so headed
[2] = 1 nM CNL001, second column so headed
[3] = 3 nM brd (TC-5619/Bradanicline)
[4] = 10 nM CNL001, first column so headed
[5] = 10 nM CNL001, second column so headed
[6] = 30 nM brd (TC-5619/Bradanicline)
[7] = 50 nM CNL001, first column so headed
[8] = 50 nM CNL001, second column so headed
[9] = 100 nM CNL001, first column so headed
[10] = 100 nM CNL001, second column so headed
[11] = 300 nM brd (TC-5619/Bradanicline)
[12] = 1 uM CNL001, first column so headed
[13] = 1 uM CNL001, second column so headed

B1: CODA236: engineered receptor: R101F in SEQ ID NO: 33 (protein)
chain: MRCSPGGVWLALAASLLHVSLQGEFQRKLYKELVKNYNPLERPVANDSQPLTVYFSLSLLQIMDVDEKNQVLTTNIWLQMSWTDHYLQWNVSEYPGVKTVFFPDGQIWKPDILLYNSADERFDATFHTNVLVNSSGHCQYLPPGIFKSSCPMDLKNFPMDVQTCKLKFGSWSYGGWSLDLQMQEADISGYIPNGEWDLVGIPGKRSERFYECCKEPYPDVTFTVTMRRRMGYYLIQMYIPSLLIVILSWISFWINMDAAPARVGLGITTVLTMTTQSSGSRASLPKVSYVKAIDIWMAVCLLFVFSALLEYAAVNFVSRQHKELLRFRRKRRHHKSPMLNLFQEDEAGEGRFNFSAYGMGPACLQAKDGISVKGANNSNTTNPPPAPSKSPEEMRKLFIQRAKKIDKISRIGFPMAFLIFNMFYWIIYKIVRREDVHNQ
modifications: synthetic sequence of chimeric LGIC
YFP fluorescence quenching using CNL001 (percent quench) [1]: 9.048%
YFP fluorescence quenching using CNL001 (percent quench) [2]: 26.601%
YFP fluorescence quenching using TC-5619/Bradanicline (percent quench) [3]: 49.33%
YFP fluorescence quenching using CNL001 (percent quench) [4]: 71.533%
YFP fluorescence quenching using CNL001 (percent quench) [5]: 72.948%
YFP fluorescence quenching using TC-5619/Bradanicline (percent quench) [6]: 77.38%
YFP fluorescence quenching using CNL001 (percent quench) [7]: 75.895%
YFP fluorescence quenching using CNL001 (percent quench) [8]: 74.238%
YFP fluorescence quenching using ABT-126 (percent quench) (50 nM abt (ABT-126)): −18.69%
YFP fluorescence quenching using CNL001 (percent quench) [9]: 76%
YFP fluorescence quenching using CNL001 (percent quench) [10]: 75.861%
YFP fluorescence quenching (percent quench) (100 nM CNL002): −9.56%
YFP fluorescence quenching using ABT-126 (percent quench) (100 nM abt (ABT-126)): −23.01%
YFP fluorescence quenching using AZD-0328 (percent quench) (100 nM azd0328): −9.78%
YFP fluorescence quenching using ABT-126 (percent quench) (300 nM abt (ABT-126)): −20.92%
YFP fluorescence quenching using AZD-0328 (percent quench) (300 nM azd0328): 49.64%
YFP fluorescence quenching using TC-5619/Bradanicline (percent quench) [11]: 77.51%
YFP fluorescence quenching using CNL001 (percent quench) [12]: 76.367%
YFP fluorescence quenching using CNL001 (percent quench) [13]: 76.162%
YFP fluorescence quenching (percent quench) (1 uM CNL002): 56.9%
YFP fluorescence quenching using ABT-126 (percent quench) (1 uM abt (ABT-126)): 4.99%
YFP fluorescence quenching (percent quench) (10 uM ach (acetylcholine)): −18.24%
YFP fluorescence quenching (percent quench) (30 uM CNL002): 70.28%
YFP fluorescence quenching using AZD-0328 (percent quench) (30 uM azd0328): 81.14%
YFP fluorescence quenching (percent quench) (100 uM ach (acetylcholine)): 60%
YFP fluorescence quenching (percent quench) (1 mM ach (acetylcholine)): 66.07%
YFP fluorescence quenching (percent quench) (3 mM ach (acetylcholine)): 71.38%
YFP fluorescence quenching using Facinicline, 30 nM fac: −28.54
YFP fluorescence quenching using Facinicline, 300 nM fac: 72.98
YFP fluorescence quenching using Facinicline, 30 uM fac: 87.6
YFP fluorescence quenching using TC-6987, 1 uM tc6987: 45.34
YFP fluorescence quenching using TC-6987, 10 uM tc6987: 70.04
YFP fluorescence quenching using TC-6987, 500 uM tc6987: 75.86
YFP fluorescence quenching using Varenicline, 3 nM var (first column): 19.949
YFP fluorescence quenching using Varenicline, 3 nM var (second column): 22.334
YFP fluorescence quenching using Varenicline, 30 nM var (first column): 15.764
YFP fluorescence quenching using Varenicline, 30 nM var (second column): 16.213
YFP fluorescence quenching using Varenicline, 300 nM var (first column): 23.135
YFP fluorescence quenching using Varenicline, 300 nM var (second column): 22.987
YFP fluorescence quenching using Varenicline, 500 nM var (first column): 35.048
YFP fluorescence quenching using Varenicline, 500 nM var (second column): 34.188
YFP fluorescence quenching using Varenicline, 1 uM var (first column): 71.031
YFP fluorescence quenching using Varenicline, 1 uM var (second column): 71.005

B2: CODA237: engineered receptor: R101M in SEQ ID NO: 33 (protein)
chain: MRCSPGGVWLALAASLLHVSLQGEFQRKLYKELVKNYNPLERPVANDSQPLTVYFSLSLLQIMDVDEKNQVLTTNIWLQMSWTDHYLQWNVSEYPGVKTVMFPDGQIWKPDILLYNSADERFDATFHTNVLVNSSGHCQYLPPGIFKSSCPMDLKNFPMDVQTCKLKFGSWSYGGWSLDLQMQEADISGYIPNGEWDLVGIPGKRSERFYECCKEPYPDVTFTVTMRRRMGYYLIQMYIPSLLIVILSWISFWINMDAAPARVGLGITTVLTMTTQSSGSRASLPKVSYVKAIDIWMAVCLLFVFSALLEYAAVNFVSRQHKELLRFRRKRRHHKSPMLNLFQEDEAGEGRFNFSAYGMGPACLQAKDGISVKGANNSNTTNPPPAPSKSPEEMRKLFIQRAKKIDKISRIGFPMAFLIFNMFYWIIYKIVRREDVHNQ
modifications: synthetic sequence of chimeric LGIC
YFP fluorescence quenching using CNL001 (percent quench) [1]: −2.114%
YFP fluorescence quenching using CNL001 (percent quench) [2]: −5.079%
YFP fluorescence quenching using TC-5619/Bradanicline (percent quench) [3]: −14.87%
YFP fluorescence quenching using CNL001 (percent quench) [4]: 15.096%
YFP fluorescence quenching using CNL001 (percent quench) [5]: 50.554%
YFP fluorescence quenching using TC-5619/Bradanicline (percent quench) [6]: 69.93%
YFP fluorescence quenching using CNL001 (percent quench) [7]: 66.585%
YFP fluorescence quenching using CNL001 (percent quench) [8]: 74.462%
YFP fluorescence quenching using ABT-126 (percent quench) (50 nM abt (ABT-126)): −24.34%
YFP fluorescence quenching using CNL001 (percent quench) [9]: 78%
YFP fluorescence quenching using CNL001 (percent quench) [10]: 77.411%
YFP fluorescence quenching (percent quench) (100 nM CNL002): −8.68%
YFP fluorescence quenching using ABT-126 (percent quench) (100 nM abt (ABT-126)): −20.22%
YFP fluorescence quenching using AZD-0328 (percent quench) (100 nM azd0328): −17.84%
YFP fluorescence quenching using ABT-126 (percent quench) (300 nM abt (ABT-126)): −20.57%
YFP fluorescence quenching using AZD-0328 (percent quench) (300 nM azd0328): −11.98%
YFP fluorescence quenching using TC-5619/Bradanicline (percent quench) [11]: 76.57%
YFP fluorescence quenching using CNL001 (percent quench) [12]: 79.06%
YFP fluorescence quenching using CNL001 (percent quench) [13]: 79.162%
YFP fluorescence quenching (percent quench) (1 uM CNL002): −2.24%
YFP fluorescence quenching using ABT-126 (percent quench) (1 uM abt (ABT-126)): −19.55%
YFP fluorescence quenching (percent quench) (10 uM ach (acetylcholine)): −16.79%
YFP fluorescence quenching (percent quench) (30 uM CNL002): 66.99%
YFP fluorescence quenching using AZD-0328 (percent quench) (30 uM azd0328): 81.2%
YFP fluorescence quenching (percent quench) (100 uM ach (acetylcholine)): −18.63%
YFP fluorescence quenching (percent quench) (1 mM ach (acetylcholine)): 46.28%
YFP fluorescence quenching (percent quench) (3 mM ach (acetylcholine)): 69.31%
YFP fluorescence quenching using Facinicline, 30 nM fac: −24.14
YFP fluorescence quenching using Facinicline, 300 nM fac: −14.38
YFP fluorescence quenching using Facinicline, 30 uM fac: 88.78
YFP fluorescence quenching using TC-6987, 1 uM tc6987: −21.62
YFP fluorescence quenching using TC-6987, 10 uM tc6987: 21.52
YFP fluorescence quenching using TC-6987, 500 uM tc6987: 60.33
YFP fluorescence quenching using Varenicline, 3 nM var (first column): 18.429
YFP fluorescence quenching using Varenicline, 3 nM var (second column): 16.83
YFP fluorescence quenching using Varenicline, 30 nM var (first column): 23.07
YFP fluorescence quenching using Varenicline, 30 nM var (second column): 15.868
YFP fluorescence quenching using Varenicline, 300 nM var (first column): 18.819
YFP fluorescence quenching using Varenicline, 300 nM var (second column): 19.155
YFP fluorescence quenching using Varenicline, 500 nM var (first column): 19.117
YFP fluorescence quenching using Varenicline, 500 nM var (second column): 22.593
YFP fluorescence quenching using Varenicline, 1 uM var (first column): 24.525
YFP fluorescence quenching using Varenicline, 1 uM var (second column): 23.383
